Measured values as given in patent US20100291155A1, “ALLERGY VACCINE COMPOSITION FOR MUCOSAL ADMINISTRATION” (ALK-Abello A/S, priority 2008, published 2010).
“Also recorded” adds a separate entry of the source.

Tests used:
nDer p 1 [1] = target: T1, nDer p 1 (Dermatophagoides pteronyssinus, UniProt P08176); experiment: Proteolytic activity of purified nDer p 1 pools in presence or absence of E64 (Z-LLE-AMC substrate); assay type: biochemical, D. pteronyssinus; settings: for enzymatic activity of Der p 1 pool: DTT as reducing agent, absence of E64, 0.1 mM Z-LLE-AMC, 37° C.
T1 construct: Der p 1 has only been found in its mature form in the D. pteronyssinus faecal particles; from tissue; host or cells: D. pteronyssinus mite material
T1 sequence (P08176 99-320): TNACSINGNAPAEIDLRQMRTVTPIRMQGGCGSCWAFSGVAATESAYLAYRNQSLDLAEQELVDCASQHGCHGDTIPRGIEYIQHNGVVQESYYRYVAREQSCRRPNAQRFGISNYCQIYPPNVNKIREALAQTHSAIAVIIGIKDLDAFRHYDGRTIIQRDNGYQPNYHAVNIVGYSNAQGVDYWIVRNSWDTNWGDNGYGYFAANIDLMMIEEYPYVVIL
Protocol: (§1) The enzymatic activity of nDer p 1 was evaluated using the peptide substrate Z-LLE linked to the fluorescent group AMC. […] When Der p 1 is added, it cleaves the bond between AMC and the peptide sequence and the fluorescence increases considerably. Therefore the product formation was evaluated in terms of increase in fluorescence.
(§2) All activity assays were performed on a Spectra Max instrument (GeminiXS Molecular Devises) at a temperature of 37° C. The fluorescence was measured using an excitation wavelength (λex) of 350 nm and emission wavelength (λem) of 450 nm. The Spectra Max instrument was set to automix before the first read and in between reads. The enzymatic activity was measured in RFU, relative fluorescent units. Using the software SoftMax® PRO 4.3 LS, the initial velocity of the reaction (V0) was estimated from the maximal slope of the progress curve.
(§3) Stock solutions of assay buffer (50 mM Tris (Sigma), 5 mM EDTA (Fluka)) and 1 M DTT (Merck) were made once and kept at +5° C. and −20° C. respectively. DTT was kept in aliquots of 55 μl, and when necessary DTT was added to the assay buffer just before use.
(§4) The total volume applied for each well in the micro titer plate (Corning, 96-well non-binding black polystyrene plate) amounted to 200 μl. The reaction was always started by the addition of 50 μl of 0.1 mM or 1 mM substrate diluted in assay buffer, and the fluorescence was measured continuously for 20-90 minutes.
An enzymatic assay in the presence or absence of the cysteine protease specific inhibitor E64 was used in order to verify the identity of the purified protein as cysteine protease. One aliquot of nDer p 1 was pre-incubated for 1 hour at 37° C. with 25 μM E64 dissolved in assay buffer, while another aliquot was not. Afterwards the substrate was added at 0.1 mM concentration. The fluorescence was measured for 20 minutes. The concentration of nDer p 1 in the assay was 2.6 μM.

nDer p 1 [2] = target: T1, nDer p 1; assay type: biochemical, D. pteronyssinus
Protocol: as §1, §2, §3, §4
It was tested whether glutathione (GSH) could activate nDer p 1, and whether the activation was dose-dependent. The activity of 1.3 μM nDer p 1 was determined in the presence of different GSH concentrations of 0.5 mM, 1.0 mM, 5.0 mM, 10.0 mM and 25.0 mM. As a control, the activity was also measured in the presence of 5 mM DTT. The fluorescence was measured for 90 minutes.

nDer p 1 [3] = target: T1, nDer p 1; assay type: biochemical, D. pteronyssinus; remark: listed apart in the source
Protocol: as §1, §2, §3, §4
It was evaluated whether nDer p 8, as a glutathione S-transferase, could catalyse the activation of nDer p 1 by GSH. In this assay, nDer p1 was kept at 1.3 μM and the GSH concentration at 100 μM (physiological concentration in the airways). nDer p 8 was added at four different concentrations: 0.4 μM, 0.6 μM, 0.8 μM and 1.2 μM. The last two components to be added to the well were GSH quickly followed by the substrate. The reaction was followed during 90 minutes.

[4] = proteolytically active Der p 1 versus Der p 1 inactivated with E64, cited from earlier work
[5] = system: confluent airway epithelial cells; settings: in vitro, Wan et al. 1999; cited from earlier work
[6] = 0.1 mM GSH, nDer p 8 0.4-1.2 μM

CC(C)C[C@H](NC(=O)[C@H]1O[C@@H]1C(=O)O)C(=O)NCCCCN=C(N)N (relative stereo) [E64, L-trans-epoxysuccinyl-leucylamido(4-guanidino)butane, reference compound]
inhibition of nDer p 1 proteolytic activity (nDer p 1 [1]; 25 μM E64, pre-incubated 1 hour at 37° C., 2.6 μM nDer p 1): completely inhibited; also recorded: entirely inhibited

N[C@@H](CCC(=O)N[C@@H](CS)C(=O)NCC(=O)O)C(=O)O [GSH, Glutathione]
activation of nDer p 1 by GSH (nDer p 1 [2]; 1.3 μM nDer p 1, GSH 0.5-25.0 mM, 90 minutes): dose-dependent | time after which nDer p 1 activity evolves (nDer p 1 [2]; 5.0 mM GSH): approx. 8 minutes | time after which nDer p 1 activity boosts (nDer p 1 [2]; 10.0 mM GSH): 6 min | time after which nDer p 1 activity increases notably (nDer p 1 [2]; 25.0 mM): 3 min | correlation between initial velocity of nDer p 1 activity and GSH concentration (nDer p 1 [2]; FIG. 4): approximate linear correlation | lag time of nDer p 1 activation (time required to detect enzyme activity) (nDer p 1 [2]; GSH 0.1-0.5 mM (physiological concentrations in the airways)): around 30 minutes | speed of nDer p 1 activation compared with DTT (nDer p 1 [2]; control 5 mM DTT): slower than the activation by DTT | Der p 1 activity when activated by GSH (nDer p 1 [3]; 0.1 mM GSH, no Der p 8): very low | lag time of Der p 1 activation (nDer p 1 [3]; 0.1 mM GSH, no Der p 8): approximately 30 minutes

nDer p 8: glutathione S-transferase from Dermaphagoides pteronyssinus, 25589 Da, 219 amino acids
time until activity differentiated from the test without nDer p 8 (nDer p 1 [3]; 0.4 μM nDer p 8, 0.1 mM GSH): over 30 minutes | time after which activity increased (nDer p 1 [3]; 1.2 μM Der p 8, 0.1 mM GSH): approximately 8 minutes | velocity of the reaction at the end of the assay versus nDer p 8 concentration (nDer p 1 [3]; 0.1 mM GSH, FIG. 6): increases significantly | effect of Der p 8 on Der p 1 activity (activation by GSH) (nDer p 1 [3]; [6]): higher; also recorded: enhances the activation | effect of Der p 8 on lag time of Der p 1 activation (nDer p 1 [3]; [6]): shorter

B1: nDer p 1: major house dust mite allergen, a 25371 Da papain-like cysteine protease purified from D. pteronyssinus (protein, UniProt P08176 99-320, looked up)
Peptidase 1: TNACSINGNAPAEIDLRQMRTVTPIRMQGGCGSCWAFSGVAATESAYLAYRNQSLDLAEQELVDCASQHGCHGDTIPRGIEYIQHNGVVQESYYRYVAREQSCRRPNAQRFGISNYCQIYPPNVNKIREALAQTHSAIAVIIGIKDLDAFRHYDGRTIIQRDNGYQPNYHAVNIVGYSNAQGVDYWIVRNSWDTNWGDNGYGYFAANIDLMMIEEYPYVVIL
nDer p 1 activity when GSH is absent (nDer p 1 [2]; no GSH): no activity | Der p 1 activity alone (nDer p 1 [3]; 1.3 μM nDer p 1, substrate present, no reducing agent): no activity | lung inflammation ([4]; mice): notably higher | total IgE level in the circulation ([4]; sensitized mice, intranasal): significantly higher | effect on intercellular tight junctions [5]: causes disruption of intercellular tight junctions

B2: Pool 2: second flow-through peak of nDer p 1 from the SBTI-agarose column (protein, UniProt P08176 99-320, looked up)
Peptidase 1: TNACSINGNAPAEIDLRQMRTVTPIRMQGGCGSCWAFSGVAATESAYLAYRNQSLDLAEQELVDCASQHGCHGDTIPRGIEYIQHNGVVQESYYRYVAREQSCRRPNAQRFGISNYCQIYPPNVNKIREALAQTHSAIAVIIGIKDLDAFRHYDGRTIIQRDNGYQPNYHAVNIVGYSNAQGVDYWIVRNSWDTNWGDNGYGYFAANIDLMMIEEYPYVVIL
modifications: SBTI-agarose flow-through pool 2
enzymatic activity of Der p 1 pool (nDer p 1 [1]): did not show any activity | enzymatic activity of Der p 1 pool (nDer p 1 [1]; listed as second pool): did not show any significant activity

B3: nDer p 1 pool 1: first flow-through peak of nDer p 1 from the SBTI-agarose column (protein, UniProt P08176 99-320, looked up)
Peptidase 1: TNACSINGNAPAEIDLRQMRTVTPIRMQGGCGSCWAFSGVAATESAYLAYRNQSLDLAEQELVDCASQHGCHGDTIPRGIEYIQHNGVVQESYYRYVAREQSCRRPNAQRFGISNYCQIYPPNVNKIREALAQTHSAIAVIIGIKDLDAFRHYDGRTIIQRDNGYQPNYHAVNIVGYSNAQGVDYWIVRNSWDTNWGDNGYGYFAANIDLMMIEEYPYVVIL
modifications: SBTI-agarose flow-through pool 1
enzymatic activity of Der p 1 pool (nDer p 1 [1]): there was activity | enzymatic activity of Der p 1 pool (nDer p 1 [1]; listed as first pool): clear activity
